Measured values published in paper PMC5027573, “Structural Analysis of the Hg(II)-Regulatory Protein Tn501 MerR from Pseudomonas aeruginosa” (Scientific Reports, 2016).

Target: the molecule itself
Assay: crystal structure; Hg(II)-bound truncated MerR (equimolar HgCl2); sitting-drop vapor diffusion at 16 °C, 0.1 M KCl, 0.01 M MgCl2, 0.1 M Tris pH 8.5, 30% PEG200; space group P3(1)21, one dimer in the asymmetric unit; Hg SAD, 2.8 Å

B1: C-terminal truncated Tn501 MerR (MerRTC10), mercury(II)-bound (domain or fragment, Pseudomonas aeruginosa, UniProt P0A183 1-134, looked up)
chain: MENNLENLTIGVFAKAAGVNVETIRFYQRKGLLLEPDKPYGSIRRYGEADVTRVRFVKSAQRLGFSLDEIAELLRLEDGTHCEEASSLAEHKLKDVREKMADLARMEAVLSELVCACHARRGNVSCPLIASLQG
notes: Mercuric resistance operon regulatory protein MerR of transposon Tn501, Pseudomonas aeruginosa; the last ten C-terminal residues were truncated; synthesized and codon-optimized merR gene; also called Hg2+-MerR; C-terminally truncated Tn501 MerR; source: E. coli BL21 (DE3), pET-30a, purified (HiTrap Phenyl FF, HisTrap HF, Superdex200 gel filtration)
stoichiometry N: 2
